Key:
[1] = target: human GLT25D1/ColGalT1 (procollagen galactosyltransferase 1), amino acids 30-622, wild type (human) (UniProt Q8NBJ5); assay: cryo-EM structure
cryo-EM structure = target: the molecule itself; assay: cryo-EM structure

Row | Molecule | stoichiometry N [1] | stoichiometry N (cryo-EM structure)
1 | human GLT25D1/ColGalT1 (procollagen galactosyltransferase 1), amino acids 30-622, wild type (from UniProt Q8NBJ5 30-622) (enzyme) | 2 | 
2 | human LH3/PLOD3 (multifunctional procollagen lysine hydroxylase and glycosyltransferase LH3), wild type (enzyme, N-linked glycans at N63 and N548 (seen in the cryo-EM map)) SDRPRGRDPVNPEKLLVITVATAETEGYLRFLRSAEFFNYTVRTLGLGEEWRGGDVARTVGGGQKVRWLKKEMEKYADREDMIIMFVDSYDVILAGSPTELLKKFVQSGSRLLFSAESFCWPEWGLAEQYPEVGTGKRFLNSGGFIGFATTIHQIVRQWKYKDDDDDQLFYTRLYLDPGLREKLSLNLDHKSRIFQNLNGALDEVVLKFDRNRVRIRNVAYDTLPIVVHGNGPTKLQLNYLGNYVPNGWTPEGGCGFCNQDRRTLPGGQPPPRVFLAVFVEQPTPFLPRFLQRLLLLDYPPDRVTLFLHNNEVFHEPHIADSWPQLQDHFSAVKLVGPEEALSPGEARDMAMDLCRQDPECEFYFSLDADAVLTNLQTLRILIEENRKVIAPMLSRHGKLWSNFWGALSPDEYYARSEDYVELVQRKRVGVWNVPYISQAYVIRGDTLRMELPQRDVFSGSDTDPDMAFCKSFRDKGIFLHLSNQHEFGRLLATSRYDTEHLHPDLWQIFDNPVDWKEQYIHENYSRALEGEGIVEQPCPDVYWFPLLSEQMCDELVAEMEHYGQWSGGRHEDSRLAGGYENVPTVDIHMKQVGYEDQWLQLLRTYVGPMTESLFPGYHTKARAVMNFVVRYRPDEQPSLRPHHDSSTFTLNVALNHKGLDYEGGGCRFLRYDCVISSPRKGWALLHPGRLTHYHEGLPTTWGTRYIMVSFVDP |  | 2

Source: article PMC11897130 (Nature Communications, 2025)
